Results as given in patent publication US20230265151A1, “GIP/GLP1 CO-AGONIST COMPOUNDS” (priority 2020, published 2023).
Residue numbers refer to the chain shown, from its start. *1 amine or outer side, *2 acyl side, *3 side chain or, on linkers, in order; H or OH if unused. Where no end group is shown, it is not given here. Side-chain parts run from the residue outwards. [ ]: non-standard residue; d: D form. The star is where a group is joined. Decanoyl(10-(4-HOOC-PhO)) = O=C(O)c1ccc(OCCCCCCCCCC(=O)*)cc1; αMePhe(2-F) = C[C@](N)(Cc1ccccc1F)C(=O)O; γGlu = O=C(O)[C@H](CCC(=O)[*:2])N[*:1]; αMeY = C[C@](N)(Cc1ccc(O)cc1)C(=O)O; αMeL = CC(C)C[C@](C)(N)C(=O)O; Orn = NCCC[C@H](N)C(=O)O; AEEA = NCCOCCOCC(=O)O; Om = not defined here; Aib = CC(C)(N)C(=O)O

T1: human GIP receptor (human) (UniProt P48546)
T1 sequence (looked up): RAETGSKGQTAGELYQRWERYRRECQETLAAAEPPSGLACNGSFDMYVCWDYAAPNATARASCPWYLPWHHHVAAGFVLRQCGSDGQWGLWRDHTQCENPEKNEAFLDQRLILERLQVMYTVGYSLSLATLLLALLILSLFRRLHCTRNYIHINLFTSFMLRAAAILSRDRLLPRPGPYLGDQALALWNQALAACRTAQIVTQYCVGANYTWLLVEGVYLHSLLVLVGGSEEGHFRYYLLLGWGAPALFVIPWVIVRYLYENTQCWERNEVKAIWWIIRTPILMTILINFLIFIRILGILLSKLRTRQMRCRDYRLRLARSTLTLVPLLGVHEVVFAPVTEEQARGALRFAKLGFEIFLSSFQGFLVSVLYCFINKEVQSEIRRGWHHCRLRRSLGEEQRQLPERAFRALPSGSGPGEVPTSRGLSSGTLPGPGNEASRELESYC

T2: human GIP receptor (human, UniProt P48546 22-466)
T2 sequence (looked up): T1 sequence (looked up)

B1: Example 353 (peptide)
peptide: Y[Aib]EGT[αMePhe(2-F)]TSDV[Aib]I[αMeL]LD[Orn]K([AEEA-AEEA-γGlu-Decanoyl(10-(4-HOOC-PhO))])AQ[Aib][Om]FI[dE][αMeY]LIK([AEEA-AEEA-γGlu-Decanoyl(10-(4-HOOC-PhO))])GGPSSGAPPPS-NH2
modifications: reading uncertain; also: printed as Y-Aib-EGT-αMeF(2F)-TSDV-Aib-I-αMeL-LD-Orn-K((2-[2-(2-Amino-ethoxy)-ethoxy]-acetyl)2-(γ-Glu)-(10-(4-carboxyphenoxy)decanoyl))AQ-Aib-Om-FI-(D-Glu)-αMeY-LIK((2-[2-(2-Amino-ethoxy)-ethoxy]-acetyl)2-(γ-Glu)-(10-(4-carboxyphenoxy)decanoyl))GGPSSGAPPPS-NH2
B2: Example 416 (peptide)
peptide: YXEGTXTSDXXIXLDXKAQXXFIXXLIKGGPSSGAPPPS
modifications: Y-Aib-EGT-αMeF(2F)-TSD-4Pal-Aib-I-αMeL-LD-Orn-K((2-[2-(2-Amino-ethoxy)-ethoxy]-acetyl)2-(γ-Glu)-CO-(CH2)10-CH3)AQ-Aib-4Pal-FI-(D-Glu)-αMeY-LIK((2-[2-(2-Amino-ethoxy)-ethoxy]-acetyl)2-(γ-Glu)-CO-(CH2)10-CH3)GGPSSGAPPPS-NH2
B3: Example 425 (peptide)
peptide: B2 peptide with X10K, X21E, K28E
modifications: Y-Aib-EGT-αMeF(2F)-TSDK((2-[2-(2-Amino-ethoxy)-ethoxy]-acetyl)-(γ-Glu)-CO-(CH2)10-CH3)-Aib-I-αMeL-LD-Orn-K((2-[2-(2-Amino-ethoxy)-ethoxy]-acetyl)-(γ-Glu)-CO-(CH2)10-CH3)AQ-Aib-EFI-(D-Glu)-αMeY-LIEGGPSSGAPPPS-NH2
B4: Example 461 (peptide)
peptide: B2 peptide with K17Q, X24K
modifications: Y-Aib-EGT-αMeF(2F)-TSD-4Pal-Aib-I-αMeL-LD-Orn-QAQ-Aib-Orn-FIK(PEG4-(γ-Glu)-(10-(4-carboxyphenoxy)decanoyl))-αMeY-LIK(PEG4-(γ-Glu)-(10-(4-carboxyphenoxy)decanoyl))GGPSSGAPPPS-NH2
B5: Example 462 (peptide)
peptide: B2 peptide with K17Q, X24K
modifications: Y-Aib-EGT-αMeF(2F)-TSD-4Pal-Aib-I-αMeL-LD-Orn-QAQ-Aib-Orn-FIK(PEG3-(γ-Glu)-(10-(4-carboxyphenoxy)decanoyl))-αMeY-LIK(PEG3-(γ-Glu)-(10-(4-carboxyphenoxy)decanoyl))GGPSSGAPPPS-NH2
B6: Example 463 (peptide)
peptide: B2 peptide with K17Q, X24K
modifications: Y-Aib-EGT-αMeF(2F)-TSD-4Pal-Aib-I-αMeL-LD-Orn-QAQ-Aib-Orn-FIK((2-[2-(2-Amino-ethoxy)-ethoxy]-acetyl)-(γ-Glu)-(10-(4-carboxyphenoxy)decanoyl))-αMeY-LIK((2-[2-(2-Amino-ethoxy)-ethoxy]-acetyl)-(γ-Glu)-(10-(4-carboxyphenoxy)decanoyl))GGPSSGAPPPS-NH2
B7: Example 466 (peptide)
peptide: B2 peptide with K17Q, X24K
modifications: Y-Aib-EGT-αMeF(2F)-TSD-4Pal-Aib-I-αMeL-LD-Orn-QAQ-Aib-Orn-FIK(PEG6-(γ-Glu)-CO-(CH2)12-CO2H)-αMeY-LIK(PEG6-(γ-Glu)-CO-(CH2)12-CO2H)GGPSSGAPPPS-NH2
B8: Example 467 (peptide)
peptide: B2 peptide with K17Q, X24K
modifications: Y-Aib-EGT-αMeF(2F)-TSD-4Pal-Aib-I-αMeL-LD-Orn-QAQ-Aib-Orn-FIK(PEG5-(γ-Glu)-CO-(CH2)12-CO2H)-αMeY-LIK(PEG5-(γ-Glu)-CO-(CH2)12-CO2H)GGPSSGAPPPS-NH2
B9: Example 468 (peptide)
peptide: B2 peptide with K17Q, X24K
modifications: Y-Aib-EGT-αMeF(2F)-TSD-4Pal-Aib-I-αMeL-LD-Orn-QAQ-Aib-Orn-FIK(PEG6-(γ-Glu)-(10-(4-carboxyphenoxy)decanoyl))-αMeY-LIK(PEG6-(γ-Glu)-(10-(4-carboxyphenoxy)decanoyl))GGPSSGAPPPS-NH2
B10: Example 469 (peptide)
peptide: B2 peptide with K17Q, X24K
modifications: Y-Aib-EGT-αMeF(2F)-TSD-4Pal-Aib-I-αMeL-LD-Orn-QAQ-Aib-Orn-FIK(PEG5-(γ-Glu)-(10-(4-carboxyphenoxy)decanoyl))-αMeY-LIK(PEG5-(γ-Glu)-(10-(4-carboxyphenoxy)decanoyl))GGPSSGAPPPS-NH2
B11: Example 470 (peptide)
peptide: B2 peptide with K17Q, X24K
modifications: Y-Aib-EGT-αMeF(2F)-TSD-4Pal-Aib-I-αMeL-LD-Orn-QAQ-Aib-Orn-FIK((2-[2-(2-Amino-ethoxy)-ethoxy]-acetyl)2--Trx-(γ-Glu)-CO-(CH2)12-CO2H)-αMeY-LIK(((2-[2-(2-Amino-ethoxy)-ethoxy]-acetyl)2--Trx(γ-Glu)-CO-(CH2)12-CO2H)GGPSSGAPPPS-NH2)
B12: Example 471 (peptide)
peptide: B2 peptide with K17Q, X24K
modifications: Y-Aib-EGT-αMeF(2F)-TSD-4Pal-Aib-I-αMeL-LD-Orn-QAQ-Aib-Orn-FIK((2-[2-(2-Amino-ethoxy)-ethoxy]-acetyl)2--Trx-(γ-Glu)-(10-(4-carboxyphenoxy)decanoyl))-αMeY-LIK(((2-[2-(2-Amino-ethoxy)-ethoxy]-acetyl)2--Trx-(γ-Glu)-(10-(4-carboxyphenoxy)decanoyl))GGPSSGAPPPS-NH2)
B13: Example 472 (peptide)
peptide: B2 peptide with K17Q, X24K
modifications: Y-Aib-EGT-αMeF(2F)-TSD-4Pal-Aib-I-αMeL-LD-Orn-QAQ-Aib-Orn-FIK((2-[2-(2-Amino-ethoxy)-ethoxy]-acetyl)-Trx-(γ-Glu)-CO-(CH2)12-CO2H)-αMeY-LIK(((2-[2-(2-Amino-ethoxy)-ethoxy]-acetyl)-Trx-(γ-Glu)-CO-(CH2)12-CO2H)GGPSSGAPPPS-NH2)
B14: Example 473 (peptide)
peptide: B2 peptide with K17Q, X24K
modifications: Y-Aib-EGT-αMeF(2F)-TSD-4Pal-Aib-I-αMeL-LD-Orn-QAQ-Aib-Orn-FIK((2-[2-(2-Amino-ethoxy)-ethoxy]-acetyl)-Trx-(γ-Glu)-(10-(4-carboxyphenoxy)decanoyl))-αMeY-LIK(((2-[2-(2-Amino-ethoxy)-ethoxy]-acetyl)-Trx-(γ-Glu)-(10-(4-carboxyphenoxy)decanoyl))GGPSSGAPPPS-NH2)
B15: Example 474 (peptide)
peptide: B2 peptide with K17Q, X24K
modifications: Y-Aib-EGT-αMeF(2F)-TSD-4Pal-Aib-I-αMeL-LD-Orn-QAQ-Aib-Orn-FIK((2-[2-(2-Amino-ethoxy)-ethoxy]-acetyl)2-(γ-Glu)2-CO-(CH2)12-CO2H)-αMeY-LIK((2-[2-(2-Amino-ethoxy)-ethoxy]-acetyl)2-(γ-Glu)2-CO-(CH2)12-CO2H)GGPSSGAPPPS-NH2
B16: Example 475 (peptide)
peptide: B2 peptide with K17Q, X24K
modifications: Y-Aib-EGT-αMeF(2F)-TSD-4Pal-Aib-I-αMeL-LD-Orn-QAQ-Aib-Orn-FIK((2-[2-(2-Amino-ethoxy)-ethoxy]-acetyl)2-(γ-Glu)2--(10-(4-carboxyphenoxy)decanoyl))-αMeY-LIK((2-[2-(2-Amino-ethoxy)-ethoxy]-acetyl)2-(γ-Glu)2--(10-(4-carboxyphenoxy)decanoyl))GGPSSGAPPPS-NH2

Legend:
Assay in all cases: cell-based or functional assay
[1] = biological target: hGLP-1R (Homo sapiens, UniProt P43220)
[2] = biological target: T1, human GIP receptor (human)
[3] = biological target: human glucagon receptor (human) (UniProt P47871)
[4] = biological target: T2, human GIP receptor
[5] = biological target: human GLP-1 receptor (human, UniProt P43220 24-463)
[6] = biological target: human glucagon receptor (human, UniProt P47871 26-477)
human glucagon receptor, sequence (P47871 26-477): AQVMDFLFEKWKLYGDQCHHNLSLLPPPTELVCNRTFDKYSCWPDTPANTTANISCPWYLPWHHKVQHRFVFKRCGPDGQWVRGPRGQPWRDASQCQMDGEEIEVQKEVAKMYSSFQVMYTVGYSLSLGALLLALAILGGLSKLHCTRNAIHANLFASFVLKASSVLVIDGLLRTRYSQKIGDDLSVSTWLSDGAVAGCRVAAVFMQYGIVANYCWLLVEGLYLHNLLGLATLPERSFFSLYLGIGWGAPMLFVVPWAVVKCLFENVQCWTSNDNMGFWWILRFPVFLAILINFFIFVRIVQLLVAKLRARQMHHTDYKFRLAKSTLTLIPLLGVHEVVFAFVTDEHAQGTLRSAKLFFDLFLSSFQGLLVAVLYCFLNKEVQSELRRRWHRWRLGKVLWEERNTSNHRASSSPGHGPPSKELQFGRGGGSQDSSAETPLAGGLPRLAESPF

Binder	cAMP EC50 [1] [nM]	cAMP Emax [1] [%]	cAMP EC50 [2] [nM]	cAMP Emax [2] [%]	cAMP EC50 [3] [nM]	cAMP EC50 (1.0% HSA) [4] [nM]	cAMP Emax (1.0% HSA) [4] [%]	cAMP EC50 (1.0% HSA) [5] [nM]	cAMP Emax (1.0% HSA) [5] [%]	cAMP EC50 (1.0% HSA) [6] [nM]
B1	0.203	98	0.0249	98.2	> 9950	5.35	84.8	7.12	92.5	> 9950
B2	0.332	104	0.0214	99	> 9950	0.723	83	–	–	> 9950
B3	0.0965	108	0.00943	97.6	> 9950	0.875	89.9	–	–	> 9950
B4	–	–	–	–	–	0.247	–	2.76	–	> 10100
B5	–	–	–	–	–	0.317	–	3.34	–	> 9950
B6	–	–	–	–	–	0.35	–	4.09	–	> 9950
B7	–	–	–	–	–	0.314	–	3.32	–	> 10100
B8	–	–	–	–	–	0.35	–	2.87	–	> 10100
B9	–	–	–	–	–	0.222	–	1.84	–	> 10100
B10	–	–	–	–	–	0.203	–	2.33	–	> 9950
B11	–	–	–	–	–	0.719	–	4.54	–	> 9950
B12	–	–	–	–	–	0.568	–	4.36	–	> 9950
B13	–	–	–	–	–	0.663	76.3	7.41	–	> 9950
B14	–	–	–	–	–	0.979	–	7.07	–	> 9950
B15	–	–	–	–	–	0.156	–	1.1	–	> 9950
B16	–	–	–	–	–	0.211	–	1.44	–	> 9950
